Test results as given in patent publication US20110045007A1 (Genmab, published 2011).

Biological target: T1, human C1q (human, UniProt P02745 23-245; P02746 28-253; P02747 29-245)
T1 construct: Bought protein; also called first component of the classical complement cascade
Test: ELISA, antibody coated, C1q detected with rabbit anti-human C1q
Procedure: In short, microtiter ELISA plates (Greiner, Germany) were coated overnight at RT with the test antibodies serially diluted from 10 μg/ml to 0.06 μg/ml in PBS. Plates were emptied and wells were blocked with 200 μl ELISA-diluent per well (0.1 M NaPO₄, 0.1 M NaCl, 0.1% gelatin and 0.05% Tween-20), at RT for 30 minutes. […] After washing the plates (3×) with PBST, wells were incubated with HRP-conjugated swine anti-rabbit IgG-Fc (DAKO, P0300, lot #069) diluted in ELISA diluent (1:2500, 100 μl/well, RT, 1 hour). Thereafter, plates were washed thrice and assays were developed with freshly prepared 1 mg/ml ABTS solution (ABTS: 2,2′-azino-bis[3-ethylbenzthiazoline-6-sulfonic acid]); 2 tablets of 5 mg in 10 ml ABTS buffer, Boehringer Mannheim, Ingelheim, Germany) at RT in the dark for 30 minutes.

T1 sequence (P02745 23-245 limits assumed, chain 1 of 3): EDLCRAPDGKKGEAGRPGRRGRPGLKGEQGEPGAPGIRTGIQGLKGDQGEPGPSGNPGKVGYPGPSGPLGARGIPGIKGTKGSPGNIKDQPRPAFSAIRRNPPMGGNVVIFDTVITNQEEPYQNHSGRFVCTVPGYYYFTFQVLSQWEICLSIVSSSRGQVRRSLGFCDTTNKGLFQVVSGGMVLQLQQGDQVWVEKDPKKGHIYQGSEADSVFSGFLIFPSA
T1 sequence (P02746 28-253 limits assumed, chain 2 of 3): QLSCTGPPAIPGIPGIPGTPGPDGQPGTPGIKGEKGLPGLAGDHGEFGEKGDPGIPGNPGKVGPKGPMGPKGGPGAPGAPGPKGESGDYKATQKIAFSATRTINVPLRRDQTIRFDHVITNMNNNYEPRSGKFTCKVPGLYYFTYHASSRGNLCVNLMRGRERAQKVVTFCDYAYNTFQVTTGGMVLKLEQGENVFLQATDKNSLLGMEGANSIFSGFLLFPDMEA
T1 sequence (P02747 29-245 limits assumed, chain 3 of 3): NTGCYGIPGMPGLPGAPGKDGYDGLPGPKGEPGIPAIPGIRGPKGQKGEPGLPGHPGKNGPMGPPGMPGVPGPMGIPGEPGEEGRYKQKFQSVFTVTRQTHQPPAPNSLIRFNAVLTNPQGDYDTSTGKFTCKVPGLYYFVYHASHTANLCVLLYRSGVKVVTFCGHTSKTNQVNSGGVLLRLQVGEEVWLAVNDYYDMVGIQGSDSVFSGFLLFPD

binding result: no binding
B1: 7D8-HG (antibody)
heavy: EVQLVESGGGLVQPDRSLRLSCAASGFTFHDYAMHWVRQAPGKGLEWVSTISWNSGTIGYADSVKGRFTISRDNAKNSLYLQMNSLRAEDTALYYCAKDIQYGNYYYGMDVWGQGTTVTVSSASTKGPSVFPLAPCSRSTSESTAALGCLVKDYFPEPVTVSWNSGALTSGVHTFPAVLQSSGLYSLSSVVTVPSSSLGTKTYTCNVDHKPSNTKVDKRVAPEFLGGPSVFLFPPKPKDTLMISRTPEVTCVVVDVSQEDPEVQFNWYVDGVEVHNAKTKPREEQFNSTYRVVSVLTVLHQDWLNGKEYKCKVSNKGLPSSIEKTISKAKGQPREPQVYTLPPSQEEMTKNQVSLTCLVKGFYPSDIAVEWESNGQPENNYKTTPPVLDSDGSFFLYSRLTVDKSRWQEGNVFSCSVMHEALHNHYTQKSLSLSLGK
light: not shown
notes: Half-molecule of one heavy and one light chain; also called hingeless IgG4 anti-CD20; IgG4 HG
